Results: patent publication US20260199447A1 (US Dept. of Health and Human Services, published 2026)

Legend:
CHIKV VLP = CHIKV VLP (chikungunya virus (CHIKV), UniProt Q8JUX5 810-1248; Q8JUX5 326-748)
[1] = target: T1, VEEV Env-pseudotyped lentiviral reporter virus (Venezuelan equine encephalitis virus …, UniProt P09592 813-1254; P09592 335-757); assay: cell-based or functional assay
T1 sequence 1: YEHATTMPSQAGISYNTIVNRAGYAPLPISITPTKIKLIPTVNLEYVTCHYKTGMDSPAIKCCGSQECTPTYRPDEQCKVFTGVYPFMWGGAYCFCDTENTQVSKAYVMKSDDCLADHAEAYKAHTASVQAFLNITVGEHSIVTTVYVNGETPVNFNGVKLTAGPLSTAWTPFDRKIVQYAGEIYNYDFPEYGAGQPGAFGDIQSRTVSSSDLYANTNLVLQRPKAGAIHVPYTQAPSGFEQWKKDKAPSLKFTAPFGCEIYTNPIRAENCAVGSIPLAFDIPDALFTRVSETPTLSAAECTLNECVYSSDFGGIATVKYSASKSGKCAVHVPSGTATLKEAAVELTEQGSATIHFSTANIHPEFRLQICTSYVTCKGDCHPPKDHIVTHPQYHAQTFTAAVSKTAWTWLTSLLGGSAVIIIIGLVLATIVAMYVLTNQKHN
T1 sequence 2: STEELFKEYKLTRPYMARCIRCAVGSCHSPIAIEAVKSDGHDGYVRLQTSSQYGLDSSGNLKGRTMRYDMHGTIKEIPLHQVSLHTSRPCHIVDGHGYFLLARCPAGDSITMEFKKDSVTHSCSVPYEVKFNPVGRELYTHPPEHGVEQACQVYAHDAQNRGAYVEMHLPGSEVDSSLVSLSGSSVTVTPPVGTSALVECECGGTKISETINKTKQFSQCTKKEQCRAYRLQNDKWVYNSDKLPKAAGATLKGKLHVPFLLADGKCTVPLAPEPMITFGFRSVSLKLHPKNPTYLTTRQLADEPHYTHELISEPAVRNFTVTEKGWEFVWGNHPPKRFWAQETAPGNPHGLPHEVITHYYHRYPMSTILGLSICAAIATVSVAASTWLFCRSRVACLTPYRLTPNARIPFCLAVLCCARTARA

[2] = target: T2, WEEV Env-pseudotyped lentiviral reporter virus (Western equine encephalitis virus (WEEV), UniProt P13897 798-1236; P13897 320-742); assay: cell-based or functional assay
T2 sequence 1: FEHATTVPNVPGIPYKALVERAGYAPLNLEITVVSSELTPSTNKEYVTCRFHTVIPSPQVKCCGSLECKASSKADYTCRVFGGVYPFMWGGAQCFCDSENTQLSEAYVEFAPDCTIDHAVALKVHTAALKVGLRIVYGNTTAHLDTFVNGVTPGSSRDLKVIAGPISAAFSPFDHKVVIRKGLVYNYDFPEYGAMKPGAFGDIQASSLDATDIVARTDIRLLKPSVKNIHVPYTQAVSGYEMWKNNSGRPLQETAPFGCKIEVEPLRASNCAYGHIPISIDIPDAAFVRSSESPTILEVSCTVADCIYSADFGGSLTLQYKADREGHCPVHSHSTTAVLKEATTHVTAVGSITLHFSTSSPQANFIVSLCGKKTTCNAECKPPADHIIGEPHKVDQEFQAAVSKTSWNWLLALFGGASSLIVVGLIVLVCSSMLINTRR
T2 sequence 2: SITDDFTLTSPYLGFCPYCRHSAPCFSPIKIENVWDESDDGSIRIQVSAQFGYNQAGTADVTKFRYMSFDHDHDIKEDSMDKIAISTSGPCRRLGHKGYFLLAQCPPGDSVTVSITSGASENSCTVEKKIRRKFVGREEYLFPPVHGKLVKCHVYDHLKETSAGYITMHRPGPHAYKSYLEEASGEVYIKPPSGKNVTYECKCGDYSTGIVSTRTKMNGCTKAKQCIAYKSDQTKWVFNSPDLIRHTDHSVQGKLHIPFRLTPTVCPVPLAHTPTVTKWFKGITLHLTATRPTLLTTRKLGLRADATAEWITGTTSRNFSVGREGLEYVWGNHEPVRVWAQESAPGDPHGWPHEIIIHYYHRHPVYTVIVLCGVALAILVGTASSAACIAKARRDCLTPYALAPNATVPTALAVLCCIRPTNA

[3] = target: T3, EEEV Env-pseudotyped lentiviral reporter virus (Eastern equine encephalitis virus (EEEV), UniProt P08768 799-1239; P08768 323-742); assay: cell-based or functional assay
T3 sequence 1: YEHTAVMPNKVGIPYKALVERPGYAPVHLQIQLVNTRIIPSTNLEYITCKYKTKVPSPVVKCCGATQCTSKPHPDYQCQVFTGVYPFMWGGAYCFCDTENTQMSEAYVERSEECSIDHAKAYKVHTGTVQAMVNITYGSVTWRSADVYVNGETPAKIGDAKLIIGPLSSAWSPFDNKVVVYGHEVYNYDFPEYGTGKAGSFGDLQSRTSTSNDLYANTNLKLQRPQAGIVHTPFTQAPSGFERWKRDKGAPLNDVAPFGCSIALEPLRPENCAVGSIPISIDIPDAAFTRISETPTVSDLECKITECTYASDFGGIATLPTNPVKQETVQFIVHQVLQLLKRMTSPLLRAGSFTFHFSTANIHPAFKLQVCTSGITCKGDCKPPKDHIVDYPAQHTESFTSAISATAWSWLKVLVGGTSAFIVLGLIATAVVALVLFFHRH
T3 sequence 2: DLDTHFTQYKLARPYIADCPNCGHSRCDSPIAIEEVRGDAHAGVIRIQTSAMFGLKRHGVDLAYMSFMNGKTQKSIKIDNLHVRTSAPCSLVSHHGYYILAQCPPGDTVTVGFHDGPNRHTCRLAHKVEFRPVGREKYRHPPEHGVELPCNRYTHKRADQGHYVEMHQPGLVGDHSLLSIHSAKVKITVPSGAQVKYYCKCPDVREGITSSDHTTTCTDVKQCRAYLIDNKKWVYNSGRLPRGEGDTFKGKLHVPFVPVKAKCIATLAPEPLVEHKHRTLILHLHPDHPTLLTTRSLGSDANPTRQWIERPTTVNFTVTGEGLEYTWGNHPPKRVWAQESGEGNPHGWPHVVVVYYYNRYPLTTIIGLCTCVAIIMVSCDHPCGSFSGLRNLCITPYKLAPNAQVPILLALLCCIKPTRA

CHIKV VLP, sequence (Q8JUX5 810-1248 limits assumed, chain 1 of 2): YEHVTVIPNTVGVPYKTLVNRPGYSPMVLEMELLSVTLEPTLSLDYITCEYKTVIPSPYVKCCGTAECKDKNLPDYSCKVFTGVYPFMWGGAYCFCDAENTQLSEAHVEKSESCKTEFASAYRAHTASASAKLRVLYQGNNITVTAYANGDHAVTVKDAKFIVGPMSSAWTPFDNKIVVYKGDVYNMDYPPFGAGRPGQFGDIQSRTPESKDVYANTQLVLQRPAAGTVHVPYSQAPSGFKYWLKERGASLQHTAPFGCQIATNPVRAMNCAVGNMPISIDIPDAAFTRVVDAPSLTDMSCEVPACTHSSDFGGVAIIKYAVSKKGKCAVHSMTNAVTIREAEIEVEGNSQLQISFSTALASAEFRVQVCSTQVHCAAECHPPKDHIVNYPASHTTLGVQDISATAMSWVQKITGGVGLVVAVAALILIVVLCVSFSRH
CHIKV VLP, sequence (Q8JUX5 326-748 limits assumed, chain 2 of 2): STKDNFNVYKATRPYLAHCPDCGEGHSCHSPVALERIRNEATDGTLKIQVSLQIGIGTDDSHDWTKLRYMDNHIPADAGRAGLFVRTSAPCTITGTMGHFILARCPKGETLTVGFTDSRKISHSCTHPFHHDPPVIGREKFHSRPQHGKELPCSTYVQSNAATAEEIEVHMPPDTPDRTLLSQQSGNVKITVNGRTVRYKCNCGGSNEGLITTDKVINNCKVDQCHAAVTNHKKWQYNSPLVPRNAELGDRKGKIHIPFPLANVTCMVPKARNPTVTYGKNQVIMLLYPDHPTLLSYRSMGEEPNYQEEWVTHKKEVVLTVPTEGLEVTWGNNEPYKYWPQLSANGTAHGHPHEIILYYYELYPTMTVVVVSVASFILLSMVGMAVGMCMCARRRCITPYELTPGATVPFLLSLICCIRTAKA

B1: SKT05 (antibody, V domains shown)
VH: EVQLVESGAGLVQPGGSLRLSCAASGFTFSDSWMSWVRQSPGKGLEWVGRIKGKPDGETAAYAASVKGRFSISRDDSKNTLYLQMNSLKTEDTAVYYCTRDDRTSCRRGVCYAAFHSWGQGVLVTVSS
VL: DIQMTQSPSSLSASAGDRVTLTCRASQAISFYLAWYQQKPGKAPKRLIYDASELQGGVPSRFSGSGSGTDFTLSINSLQPEDSATYFCLQYDSPPFTFGPGTKVEIKR
Q: Which results are given for B1?
A: EC50 (CHIKV VLP): 0.1 µg/mL; IC80, neutralization of Env-pseudotyped lentiviral reporter virus [1]: 0.06 µg/mL; IC80, neutralization of Env-pseudotyped lentiviral reporter virus [2]: 0.07 µg/mL; IC80, neutralization of Env-pseudotyped lentiviral reporter virus [3]: 0.39 µg/mL
